Test results: patent US20190359693A1
Positions count from the first letter of the chain named.

B1: SD1017 (VHH)
VHH: EVQLVESGGGLVQAGGSLRLSCAASGRTYAMAWFRQAPGKEREFVAHINALGTRAYYSDSVEGRFTISRDNAKNTGYLQMNSLEPEDTAVYVCAAGGQWRAAPVADAAQYDFWGQGTQVTVSS
B2: SD2020 (VHH)
VHH: EVQLVESGGGLVQPGGSLRLSCAAAGGAFNRQLVAWFRQAPGKKREFVATVTTSGGSSYYADSVKGRFTISRDTAKNTVALQMNSLKAEDAAVYYCAARDSFTVAPYYPPESYAYWGQGTQVTVSS
B3: SD3013 (VHH)
VHH: EVQLVESGGGVVQPGGSLRLSCAASISIFDIYAMDWYRQAPGKQRELVATSFRDGSTYYADSVKGRFTISRDNSKNTLYLQMNSLRAEDTAVYLCHVSLYRDPLGVAGGMGVYWGKGALVTVSS
B4: SD3029 (VHH)
VHH: B3 VHH with V11L, A24V, E46D, Y58N, S74A, R86K, A87P, M110L
B5: SD3021 (VHH)
VHH: B3 VHH with T50V, A87P, M110L
B6: SD3022 (VHH)
VHH: B3 VHH with T50V, A87P, M110I
B7: SD3030 (VHH)
VHH: B3 VHH with V11L, A24V, E46D, Y58N, S74A, R86K, A87P, M110I
B8: SD3119 (VHH)
VHH: B3 VHH with E1Q, T50V, L94Y, M110I, K116Q, A118T
B9: SD3079 (VHH)
VHH: B3 VHH with T50V, L94Y, M110L, K116Q, A118T
B10: SD3087 (VHH)
VHH: EVQLLESGGGLVQPGGSLRLSCAASGFTLENKAIGWFRQAPGKEREGVLCISKSGSWTYYADSVKGRFTISRDNSKNTVYLQMNSLRPEDTAVYYCATTTAGGGLCWDGTTFSRLASSWGQGTLVTVSS
B11: SD3085 (VHH)
VHH: EVQLVESGGGLVQPGGSLRLSCAASGFTFSTSWMYWLRQAPGKGLEWVSVINTDGGTYYADSVKGRFTISRDNSKNTLYLQMNSLRAEDTAVYYCAKDWGGPEPTRGQGTLVTVSS
B12: SD3092 (VHH)
VHH: EVQLVESGGGLVQPGGSLRLSCAISGLSLDTYAVGWFRQAPGKEREGVSCISSGHGMTYYADSVKGRFTISTDNSKNTLYLQMNSLRAEDTAVYYCATESRYYCSDNWPAPQRYIYWGQGTLVTVSS
B13: SD3093 (VHH)
VHH: B12 VHH with L79V
B14: MD2404 (bispecific antibody)
chain: EVQLVESGGGLVQPGGSLRLSCAVSISIFDIYAMDWYRQAPGKQRDLVATSFRDGSTNYADSVKGRFTISRDNAKNTLYLQMNSLKPEDTAVYLCHVSLYRDPLGVAGGMGVYWGKGALVTVSSAAAGGGGSGGGGSGGGGSGGGGSGGGGSGGGGSGGGGSEVQLVESGGGLVQAGGSLKLSCAASGRTYAMGWFRQAPGKEREFVAHINALGTRTYYSDSVKGRFTISRDNAKNTEYLEMNNLKPEDTAVYYCTAQGQWRAAPVAVAAEYEFWGQGTQVTVSSLINLEGGGGSGGGGSGGGGSGGGGSGGGGSGGGGSGGGGSPAGEVQLVESGGGLVQPGGSLKLSCAASGFTFSTSWMYWLRQAPGKGLEWVSVINTDGGTYYADSVKDRFTISRDNAKDTLYLQMSSLKSEDTAVYYCAKDWGGPEPTRGQGTQVTVSSAAAGGGGSGGGGSGGGGSGGGGSGGGGSGGGGSGGGGSEVQLVESGGGLVQPGGSLKLSCAASGFTFSTSWMYWLRQAPGKGLEWVSVINTDGGTYYADSVKDRFTISRDNAKDTLYLQMSSLKSEDTAVYYCAKDWGGPEPTRGQGTQVTVSS
B15: MD2402 (protein)
chain: EVQLVESGGGLVQPGGSLRLSCAVSISIFDIYAMDWYRQAPGKQRDLVATSFRDGSTNYADSVKGRFTISRDNAKNTLYLQMNSLKPEDTAVYLCHVSLYRDPLGVAGGMGVYWGKGALVTVSSAAAGGGGSGGGGSGGGGSGGGGSGGGGSGGGGSGGGGSEVQLVESGGGLVQAGGSLKLSCAASGRTYAMGWFRQAPGKEREFVAHINALGTRTYYSDSVKGRFTISRDNAKNTEYLEMNNLKPEDTAVYYCTAQGQWRAAPVAVAAEYEFWGQGTQVTVSSLINLEGGGGSGGGGSGGGGSGGGGSGGGGSGGGGSGGGGSPAGEVQLVESGGGLVQPGGSLRLSCAATGFTLENKAIGWFRQTPGSEREGVLCISKSGSWTYYTDSMRGRFTISRDNAENTVYLQMDSLKPEDTAVYYCATTTAGGGLCWDGTTFSRLASSWGQGTQVTVSSAAAGGGGSGGGGSGGGGSGGGGSGGGGSGGGGSGGGGSEVQLVESGGGLVQPGGSLKLSCAASGFTFSTSWMYWLRQAPGKGLEWVSVINTDGGTYYADSVKDRFTISRDNAKDTLYLQMSSLKSEDTAVYYCAKDWGGPEPTRGQGTQVTVSS
B16: MD1216 (bispecific antibody)
chain: EVQLVESGGGLVQPGGSLRLSCAVSISIFDIYAMDWYRQAPGKQRDLVATSFRDGSTNYADSVKGRFTISRDNAKNTLYLQMNSLKPEDTAVYLCHVSLYRDPLGVAGGMGVYWGKGALVTVSSAAAGGGGSGGGGSGGGGSGGGGSGGGGGGSGGGGSGGGGSGGGGSGGGGSGGGGSGGGGSEVQLVESGGGLVQAGGSLKLSCAASGRTYAMGWFRQAPGKEREFVAHINALGTRTYYSDSVKGRFTISRDNAKNTEYLEMNNLKPEDTAVYYCTAQGQWRAAPVAVAAEYEFWGQGTQVTVSS
B17: MD1214 (bispecific antibody)
chain: EVQLVESGGGLVQPGGSLRLSCAVSISIFDIYAMDWYRQAPGKQRDLVATSFRDGSTNYADSVKGRFTISRDNAKNTLYLQMNSLKPEDTAVYLCHVSLYRDPLGVAGGMGVYWGKGALVTVSSAAAGGGGSGGGGSGGGGSEVQLVESGGGLVQAGGSLKLSCAASGRTYAMGWFRQAPGKEREFVAHINALGTRTYYSDSVKGRFTISRDNAKNTEYLEMNNLKPEDTAVYYCTAQGQWRAAPVAVAAEYEFWGQGTQVTVSS

What follows are binders tested against HA of H1N1 A/Brisbane/59/07 (influenza A virus) (assay: cell-based or functional assay).
B1 was tested, and the VNA titer was > 1000 nM.

These binders were tested against HA of H1N1 A/New Caledonia/20/1999 (influenza A virus) (assay: cell-based or functional assay).
For B1, the VNA titer was > 1000 nM.

These binders were tested against HA of H3N2 A/Brisbane/10/2007 (influenza A virus) (assay: cell-based or functional assay).
With B1 the VNA titer was > 1000 nM. For B2, the VNA titer was 9.3 nM.

What follows are binders tested against HA of H3N2 A/Wisconsin/67/2005 (influenza A virus) (assay: cell-based or functional assay).
Work on B2 yielded a VNA titer of 304 nM.

These binders were tested against HA of H5N1 A/Vietnam/1194/04 (influenza A virus) (assay: cell-based or functional assay).
In the case of B1, the VNA titer is reported as > 1000 nM. For B2, the VNA titer was > 1000 nM.

These binders were tested against HA of H7N3 A/NIBRG/60 (A/mallard/NL/12/00) (influenza A virus) (assay: cell-based or functional assay).
B1 showed a VNA titer of 34.7 nM. With B2 the VNA titer was > 1000 nM.

The binders below were run against hemagglutinin (HA) of influenza A/Brisbane/10/07 (H3N2) (influenza A virus A/Brisbane/10/07 (H3N2)) (assay: cell-based or functional assay).
B3 was tested, and the VNA IC50 was 318 nM. With B4 the VNA IC50 was 632 nM. With B5 the VNA IC50 was > 1000 nM. In the case of B6, the VNA IC50 is reported as 632 nM. For B7, the VNA IC50 was 274 nM. Work on B8 yielded a VNA IC50 of 253 nM. For B9, the VNA IC50 was 949 nM.

Each binder was assayed against hemagglutinin (HA) of influenza A/California/07/09 (H1N1) (influenza A virus A/California/07/09 (H1N1)) (assay: cell-based or functional assay).
In the case of B4, the VNA IC50 is reported as 3 nM. Work on B5 yielded a VNA IC50 of 3 nM. With B6 the VNA IC50 was 3 nM. With B7 the VNA IC50 was 3 nM.

These binders were tested against hemagglutinin (HA) of influenza A/Hong Kong/1/68 (H3N2) (influenza A virus A/Hong Kong/1/68 (H3N2)) (UniProt Q91MA7) (assay: cell-based or functional assay).
Work on B3 yielded a VNA IC50 of 126 nM. B4 gave a VNA IC50 of 251 nM. For B7, the VNA IC50 was 126 nM. B8 showed a VNA IC50 of 101 nM. For B9, the VNA IC50 was 503 nM.

What follows are binders tested against hemagglutinin (HA) of influenza A/New Caledonia/20/99 (H1N1) (influenza A virus A/New Caledonia/20/99 (H1N1)) (assay: cell-based or functional assay).
In the case of B3, the VNA IC50 is reported as 6 nM. B4 gave a VNA IC50 of 4 nM. In the case of B5, the VNA IC50 is reported as 3 nM. B6 showed a VNA IC50 of 8 nM. B7 was tested, and the VNA IC50 was 8 nM. Work on B8 yielded a VNA IC50 of 3 nM. With B9 the VNA IC50 was 5 nM.

The binders below were run against hemagglutinin (HA) of influenza A/Vietnam/1194/04 (H5N1) (influenza A virus A/Vietnam/1194/04 (H5N1)) (assay: cell-based or functional assay).
B3 was tested, and the VNA IC50 was 20 nM. B4 gave a VNA IC50 of 20 nM. For B5, the VNA IC50 was 15 nM. B6 was tested, and the VNA IC50 was 20 nM. B7 showed a VNA IC50 of 20 nM. B8 showed a VNA IC50 of 6 nM. For B9, the VNA IC50 was 16 nM.

What follows are binders tested against hemagglutinin (HA) of influenza B/Florida/04/06 (Yamagata) (influenza B virus) (assay: cell-based or functional assay).
B10 was tested, and the VNA IC50 was 160 nM. Work on B11 yielded a VNA IC50 of 64 nM. With B12 the VNA IC50 was > 1000 nM. In the case of B13, the VNA IC50 is reported as 659 nM.

Each binder was assayed against hemagglutinin (HA) of influenza B/Harbin/7/94 (Yamagata) (influenza B virus) (assay: cell-based or functional assay).
With B10 the VNA IC50 was 201 nM. B11 gave a VNA IC50 of 228 nM. With B12 the VNA IC50 was > 1000 nM. In the case of B13, the VNA IC50 is reported as > 1000 nM.

Each binder was assayed against hemagglutinin (HA) of influenza B/Lee/40 (Old) (influenza B virus) (UniProt P03460) (assay: cell-based or functional assay).
B10 was tested, and the VNA IC50 was 91 nM. For B11, the VNA IC50 was > 1000 nM. B12 gave a VNA IC50 of 40 nM. For B13, the VNA IC50 was 32 nM.

These binders were tested against hemagglutinin (HA) of influenza B/Malaysia/2506/04 (Victoria) (influenza B virus) (assay: cell-based or functional assay).
B10 was tested, and the VNA IC50 was 81 nM. In the case of B11, the VNA IC50 is reported as 13 nM. B12 was tested, and the VNA IC50 was 40 nM. In the case of B13, the VNA IC50 is reported as 40 nM.

Each binder was assayed against hemagglutinin (HA) of influenza B/Massachusetts/02/12 (Yamagata) (influenza B virus) (assay: cell-based or functional assay).
For B10, the VNA IC50 was 104 nM. B11 showed a VNA IC50 of 32 nM. B12 was tested, and the VNA IC50 was > 1000 nM. B13 showed a VNA IC50 of 795 nM.

The binders below were run against hemagglutinin (HA) of influenza virus B/Florida/04/06 (Yamagata) (influenza B virus) (assay: cell-based or functional assay).
In the case of B14, the average neutralization titer is reported as 2.1 nM. B15 was tested, and the average neutralization titer was 14.1 nM.

What follows are binders tested against hemagglutinin (HA) of influenza virus B/Lee/40 (Old) (influenza B virus) (UniProt P03460) (assay: cell-based or functional assay).
B14 showed an average neutralization titer of 30.3 nM. B15 showed an average neutralization titer of 35.4 nM.

These binders were tested against hemagglutinin (HA) of influenza virus H1N1 A/California/07/09 (influenza A virus) (assay: cell-based or functional assay).
Binder B16 has a neutralization titer of 1.4 nM. In the case of B17, the neutralization titer is reported as 1.4 nM.

Each binder was assayed against hemagglutinin (HA) of influenza virus H1N1 A/Puerto Rico/8/34-MA (influenza A virus) (assay: cell-based or functional assay).
With B16 the neutralization titer was 9.7 nM. B17 was tested, and the neutralization titer was 7.5 nM. With B14 the average neutralization titer was 12.2 nM. B15 showed an average neutralization titer of 12.8 nM.

These binders were tested against hemagglutinin (HA) of influenza virus H3N2 A/HK/1/68-MA (influenza A virus) (assay: cell-based or functional assay).
B14 gave an average neutralization titer of 57.7 nM. B15 showed an average neutralization titer of 28.3 nM.

The binders below were run against hemagglutinin (HA) of influenza virus H3N2 A/Wisconsin/67/05 (influenza A virus) (assay: cell-based or functional assay).
Work on B16 yielded a neutralization titer of 12.1 nM. Work on B17 yielded a neutralization titer of 12.5 nM.

The binders below were run against hemagglutinin (HA) of influenza virus H5N1 A/Vietnam/1194/04 (influenza A virus) (assay: cell-based or functional assay).
B16 gave a neutralization titer of 3.4 nM. B17 was tested, and the neutralization titer was 0.9 nM. Work on B14 yielded an average neutralization titer of 20.4 nM. In the case of B15, the average neutralization titer is reported as 23.8 nM.

The binders below were run against hemagglutinin (HA) of influenza virus H7N3 A/NIBRG/60 (A/mallard/Netherlands/12/00) (influenza A virus) (assay: cell-based or functional assay).
For B14, the average neutralization titer was 34.3 nM. For B15, the average neutralization titer was 33.6 nM.
